Results published in publication PMC6166713.

Assays:
[1] = molecular target: GST-WASP(201–321) V250A (UniProt P42768); assay: scintillation proximity assay (SPA); 5 nM GST-WASP variant immobilised on protein A SPA fluoromicrospheres via an anti-GST antibody; varying concentrations of [3H]GTP·Cdc42; direct binding isotherm; apparent Kd; low-salt buffer
[2] = molecular target: GST-WASP(201–321) K235A (UniProt P42768); assay: as above
[3] = molecular target: GST-WASP(201–321) G251A (UniProt P42768); assay: as above
[4] = molecular target: GST-WASP(201–321) F244A (UniProt P42768); assay: as above
[5] = molecular target: GST-WASP(201–321) H246A (UniProt P42768); assay: as above
[6] = molecular target: GST-WASP(201–321) L267A (UniProt P42768); assay: as above
[7] = molecular target: GST-WASP(201–321) W252A (UniProt P42768); assay: as above
[8] = molecular target: GST-WASP(201–321) S242A (UniProt P42768); assay: as above
[9] = molecular target: GST-WASP(201–254) (UniProt P42768); assay: as above
[10] = molecular target: GST-WASP(201–321) I233A (UniProt P42768); assay: as above
[11] = molecular target: GST-WASP(201–321) F271A (UniProt P42768); assay: as above
[12] = molecular target: GST-WASP(201–321) H249A (UniProt P42768); assay: as above
[13] = molecular target: GST-WASP(201–321) P241A (UniProt P42768); assay: as above
[14] = molecular target: GST-WASP(201–321) L270A (UniProt P42768); assay: as above
[15] = molecular target: GST-WASP(201–321) wild type (UniProt P42768); assay: as above
[16] = molecular target: GST-WASP(201–321) K225A/K226A (UniProt P42768); assay: BLI; Octet Red; GST-WASP variants loaded on anti-GST sensors (10 μg/ml), dipped into a dilution range of Cdc42·GMPPNP; 50 mM Tris-HCl pH 7.5, 150 mM NaCl, 1 mM MgCl2, 0.02% Tween 20, 0.1% BSA, 0.05% sodium azide, 25 °C; GST-alone sensors subtracted
[17] = molecular target: GST-WASP(201–321) K231A (UniProt P42768); assay: as above

Kd [1]: 10.1 nM
Kd [2]: 8 nM
Kd [3]: 5.2 nM
Kd [4]: 64.9 nM
Kd [5]: 42.3 nM
Kd [6]: 3.2 nM
Kd [7]: 9.6 nM
Kd [8]: 6.4 nM
Kd [9]: 31.8 nM
Kd [10]: 26.4 nM
Kd [11]: 5 nM
Kd [12]: 43.1 nM
Kd [13]: 38.3 nM
Kd [14]: 1.7 nM
Kd [15]: 0.5 nM
Kd [16]: 59.6 nM
koff [16]: 0.0295 s⁻¹
kon [16]: 490000 M⁻¹ s⁻¹
Kd [17]: 89.6 nM
koff [17]: 0.0438 s⁻¹
kon [17]: 509000 M⁻¹ s⁻¹
Substance: Cdc42 Δ7 Q61L (from UniProt P60953 1-191) (natural protein)
